Patent US20160053274

How the values were obtained:
Test in all cases: cell_activity
[1] = system: TALENbar334 monomer 1 (artificial); details: tobacco protoplasts, as pair with monomer 2, 12 nt spacer, foreign DNA pTIB235; 94.35 with pTCV224, 94.09 with pTCV225
[2] = system: bar meganuclease (cleaving at bar position 479) (artificial); details: tobacco protoplasts, targeted insertion with repair DNA pTCV225 (3/164 calli)
[3] = system: TALENbar86 monomer 1 (artificial); details: tobacco protoplasts, as pair with monomer 2, 13 nt spacer, foreign DNA pTIB235; 19.6 with pTCV224, 25.6 with pTCV225
[4] = system: TALENbar334 monomer 2 (artificial); details: tobacco protoplasts, as pair with monomer 1, 12 nt spacer, foreign DNA pTIB235; 94.35 with pTCV224, 94.09 with pTCV225
[5] = system: TALENbar86 monomer 2 (artificial); details: tobacco protoplasts, as pair with monomer 1, 13 nt spacer, foreign DNA pTIB235; printed half-site differs from full site as printed (AGCACGGTCAACTTCCCT)

In the case of “CCACGCTCTACACCCACC (double strand) [bar334 half-site 1]”, the activity [1] is reported as 76 % mutation.

“GGGAACTGGCATGACGTGGGTTTC (double strand) [bar meganuclease site]” gave an activity [2] of 1.8 % TSI.

“CTGCACCATCGTCAACCA (double strand) [bar86 half-site 1]” was tested, and the activity [3] was 6.25 % mutation.

“TGAAGCCCTGTGCCTCCA (double strand) [bar334 half-site 2]” was tested, and the activity [4] was 76 % mutation.

With “ACGGAAGTTGACCGTGCT (double strand) [bar86 half-site 2]” the activity [5] was 6.25 % mutation.
